In patent US20050106655A1:

Experiments:
[1] = tested on: T1, Lissamine rhodamine-labeled peptide substrate (Dye-RPKPVE-Norvaline-WRKpSA)
T1 sequence: RPKPVEXWRKSA

[2] = biological target: PKA (protein kinase A) catalytic unit, Promega; test: cell-based or functional assay
[3] = biological target: T2, Lissamine rhodamine-labeled peptide substrate (Dye-QQQEVYGMMPRDpSA)
T2 chain: QQQEVYGMMPRDSA

## Recombinant MMP-3 catalytic subunit (Matrix Metalloproteinase 3), Calbiochem
[1]
  Km (protease assay, fluorescence quench): Km was 1.44±0.15 µM

## PKI, a known synthetic peptide inhibitor of PKA
[2]
  IC50 of inhibition of PKA activity (phosphorylation of Lissamine Rhodamine-labeled Kemptide, Fe(III) fluorescence quench assay): 2.6 nM

B1: Calpain 1 from human erythrocytes, Calbiochem (protein)
chain 1: SEEIITPVYCTGVSAQVQKQRARELGLGRHENAIKYLGQDYEQLRVRCLQSGTLFRDEAFPPVPQSLGYKDLGPNSSKTYGIKWKRPTELLSNPQFIVDGATRTDICQGALGDCWLLAAIASLTLNDTLLHRVVPHGQSFQNGYAGIFHFQLWQFGEWVDVVVDDLLPIKDGKLVFVHSAEGNEFWSALLEKAYAKVNGSYEALSGGSTSEGFEDFTGGVTEWYELRKAPSDLYQIILKALERGSLLGCSIDISSVLDMEAITFKKLVKGHAYSVTGAKQVNYRGQVVSLIRMRNPWGEVEWTGAWSDSSSEWNNVDPYERDQLRVKMEDGEFWMSFRDFMREFTRLEICNLTPDALKSRTIRKWNTTLYEGTWRRGSTAGGCRNYPATFWVNPQFKIRLDETDDPDDYGDRESGCSFVLALMQKHRRRERRFGRDMETIGFAVYEVPPELVGQPAVHLKRDFFLANASRARSEQFINLREVSTRFRLPPGEYVVVPSTFEPNKEGDFVLRFFSEKSAGTVELDDQIQANLPDEQVLSEEEIDENFKALFRQLAGEDMEISVKELRTILNRIISKHKDLRTKGFSLESCRSMVNLMDRDGNGKLGLVEFNILWNRIRNYLSIFRKFDLDKSGSMSAYEMRMAIESAGFKLNKKLYELIITRYSEPDLAVDFDNFVCCLVRLETMFRFFKTLDTDLDGVVTFDLFKWLQLTMFA
chain 2: MFLVNSFLKGGGGGGGGGGGLGGGLGNVLGGLISGAGGGGGGGGGGGGGGGGGGGGTAMRILGGVISAISEAAAQYNPEPPPPRTHYSNIEANESEEVRQFRRLFAQLAGDDMEVSATELMNILNKVVTRHPDLKTDGFGIDTCRSMVAVMDSDTTGKLGFEEFKYLWNNIKRWQAIYKQFDTDRSGTICSSELPGAFEAAGFHLNEHLYNMIIRRYSDESGNMDFDNFISCLVRLDAMFRAFKSLDKDGTGQIQVNIQEWLQLTMYS
[3]
  Km (protease assay, fluorescence quench): Km was 0.17±0.01 µM
